The source of these data is patent publication US4532212A, “Process for the dissolution of peptides in non-aqueous and mixed non-aqueous/aqueous systems” (Shell Oil Company, priority 1983, dated 1985).

Entries after “also recorded” stand apart in the source; their conditions may differ.

Assay type in all cases: physicochemical
A short description of series [1]: Dissolution of peptides/proteins in organic solvents using crown ethers and cryptands. Particulars: in words.
Description: ^(a) Protein concentration was in the range 0.05-0.8 mM depending on
protein (i.e. cytochrome c, concentration was 0.8 mM, whereas, myoglobin
concentrtion was 0.1 mM). In a typical experiment, small portions of CE
(ca 2.0 mg, 7.6 × 10^-3 mmoles) were added to a suspension of
protein/peptide (5 mg) in methanol (2 ml) at 4-25° C. with stirrin
until the suspension dissolved.
A short description of series [2]: Protein separation with crown ether/methanol: iso-electric focusing of fractions. Particulars: 18-crown-6 in methanol. The protocol: Thus mixtures of cytochrome c and α-chymotrypsin (10 mg each, 8.1×10^-4 and 4×10^-4 m.mole, respectively) were treated with 18-crown-6 (28 mg, 0.11 m.mole) in methanol (2 ml). The red solution was filtered from undissolved protein (α-chymotrypsin) and dialysed against water, then buffer (Tris, pH 7.5, 0.10 M). Both filtrate and filtered protein fractions were examined using isoelectric focusing in order to establish the purity of the separations (results shown in Table 2).
Mixtures of cytochrome c, BSA and α-chymotrypsin (10 mg each, 8,1×10^-4, 1.4×10^-4 and 4×10^-4 m.mole respectively) were treated with 18-crown-6 (50 mg, 0.19 m.mole) in methanol (2 ml) and the resulting red solution was filtered and then dialysed against water then buffer (Tris, pH 7.5, 0.01 M) to remove crown ether and methanol.

The nature of series [3]: Protein crystallisation from methanol/18-crown-6/(NH4)2SO4. To be noted: crystalline composite from methanol/18-crown-6/(NH4)2SO4.
Description: The solubilised protein solutions were stored at 4° C. within an outer tube containing ethyl acetate as precipitating co-solvent.
[4] abbreviates: mixture cytochrome c + BSA + α-chymotrypsin.

As to “Cytochrome c: Cytochrome c from horse heart (Type III, from Sigma Chemical Co.), 104 residues”, the “Solubility in methanol with crown ether” value in series [1] is given as “readily dissolves; also recorded: dissolves in methanol at a lower crown ether concentration than BSA”. In addition, the “Iso-electric focusing results, pHI” value in series [2] (setting [4]) and in series [2] (mixture cytochrome c + α-chymotrypsin) was 9.35 in each case. In addition, the “Circular dichroism / UV/visible spectroscopy of crystalline material (protein integrity)” value in series [3] is on record as “intact protein present”.
On to “Bovine serum albumin (BSA): bovine serum albumin, 513 amino acid residues as printed”, for which, in series [2] (setting [4]), the “Iso-electric focusing results, pHI” value was 5.5-6.0.
